Experimental data as given in the DeepSol protein solubility set.

Assay: soluble on expression in E. coli; label from the status in PepcDB or PDB records

Row | Sequence | soluble on expression in E. coli
1 | MGSDKIHHHHHHMIVLIGGEKGGSGKSCLAQNIAVFLTTECNASVIMVDCDPQRTTSDWIQARNNNPKLASINCVQLYGKIRNDLLSLEQHYDVVIVDCGGQDNLALRATMSVAAYILMPLRPKRRDLKTVCHMDDIVATCKMINPKLRASFVITQCPNLPNQANRILEAKEVCKTYDINVLDAITYCRNVYDDSEESGLSVIEIDPNGKAADEIRTIACELFQVDCAANLEDRLHPALLAQSAGKGQMHNGLTNSGLTNNGLLNNGLLHQTQPTHLNTKQRGQNGTQRPQEKRYAI | not soluble
2 | MGSDKIHHHHHHMAAKKKSASSRKLNLGCGRDIREGWINLDSMALPGVDVVADLSLCATTPLPFEDSSIDEFLLSHLIEHIPDPLPLMQELWRIAKPGAKMQIRVPHGAHDDAWTNPTHVKPYFARSFGYFSQPWYWRADYGYRGDWQPELVTYSVPRRRFAGQMPAQILEQIDALRNVVQEMIVDLVAVKPLRQPKKDLMQAANIKIALME | not soluble
3 | GSSHHHHHHDYDIPTTENLYFQGSAHRPRWTLSQVTELFEKPLLDLLFEAQQVHRQHFDPRQVQVSTLLSIKTGACPEDCKYCPQSSRYKTGLEAERLMEVEQVLESARKAKAAGSTRFCMGAAWKNPHERDMPYLEQMVQGVKAMGLEACMTLGTLSESQAQRLANAGLDYYNHNLDTSPEFYGNIITTRTYQERLDTLEKVRDAGIKVCSGGIVGLGETVKDRAGLLLQLANLPTPPESVPINMLVKVKGTPLADNDDVDAFDFIRTIAVARIMMPTSYVRLSAGREQMNEQTQAMCFMAGANSIFYGCKLLTTPNPEEDKDLQLFRKLGLNPQQTAVLAGDNEQQQRLEQALMTPDTDEYYNAAAL | soluble
4 | EVQLQESGPGLVKPYQSLSLSCTVTGYSITSDYAWNWIRQFPGNKLEWMGYITYSGTTDYNPSLKSRISITRDTSKNQFFLQLNSVTTEDTATYYCARYYYGYWYFDVWGQGTTLTVSSAKTTAPSVYPLAPVSSVTLGCLVKGYFPEPVTLTWNSGSLSSGVHTFPAVLQSDLYTLSSSVTVTSSTWPSQSITCNVAHPASSTKVDKKIEPR | soluble
5 | MRDMIHNISYRLMVYGTEDEEKVIEALRNVIPGATPERESAEGYHGNPITVLRGRLDRRRALREFMEKFTEVFRGRMDELEDRFDENGNLFLRLDKQKALEGVWEPVRHGDAIHLKIKVEAYPAKREVAVENIRKILE | not soluble
6 | MTVTSSAAIDIGGGGGGRRSDRLDSDRTSEDMSFIASPANESFQIGASFVDVQNESSGSIDTATATLHELNYTFGMPPVTEESENMPQNYETVVELLPGEERAPINKLTEFPIEGGSLFVTNFRIVVILKDKEVEEALRFLVFPLQDIEQIDLAIPAFIHLSLKIGRMFTICFKTAEDAALVHKILYTAFQRLNRPISSIYTSRPQDWTSKNTDNPMQSLNAFAWKFSEAVDELDRDGKLPSWLLRADSVAQEITHIDFNRLGMSEHFQISSVNENFEVCPTYPEKIIVPKGITDDDIRKGAPYRSIGRFPAVIWRCRKTRAVLMRSSQPQVGILSWRNPTDEKIIEEAVKASRIEGEEKKQFIIMDARGYTSAFANRARSGGFENTEYYQQAKLEFLGLPNIHAVRGSFNNVRTMLHNLGPNEQLLTSLQTTGWLLNLSNLLVNAANCADHLSKGHSVLVHCSDGWDRTTQVTTLAKIMLDEYYRTVKGFEELIRRDWIAFGHKLYDRQLVAFGNWGTSDERSPVFLQFLEAVRHLQREQPTLFQFTHAYLIKLAKHAYSGLFGSFLFNSHKERREAMEKCKGTLVDIWRFIGPHNEEYVNQSFDEHYTGAVKPVNVSVINLRVWHEVFADEEEHYTQIFSPKEERPLSGCTTPMNTSTSTNLVKSKSSESINSLNVDGSAKESSQQHPTCSTTPSDNTNSLPMSTSFIQQSLYQPKVRGVAAIDRDGVIRFEDDEQAMLRKKNKLRAEEIRRKDEKIEELRRRAVLDTNKVSPGQRQSYSESDVETTGTLERVMSDVSMVDPVNELPHFKPNTTWEGESGHCAYCKKEFNKLSVYVEDRQHHCRNCGRVVCEDCSKNRFSVIEEGKSVQKRACDSCYDSMHETDLKLSSSSTTTTSSSTKIENDSNVPGLDNNSDNVSENVSENAIPDIIVEEKEAEDPIKEAESPSKETKCPKTLRNFISFSPKSSMRKNKVHSRDPLKSIDEGSSSQQAESDDVLDVNEQPL | not soluble
7 | MVNFKDKSMPTAIEKALDFIGGMNTSASVPHSMDESTAKGILKYLHDLGVPVSPEVVVARGEQEGWNPEFTKKVAGWAEKVASGNRILIKNPEYFSTYMQEQLKELVLEHHHHHH | soluble
8 | MVEIFNEIMQRVKEAETIIIHRHVRPDPDAYGSQLGLKLYLERKFPEKNIYATGEAEPSLSFIGDLDEIDDSVYSDALVIVCDTANAPRIDDQRYLNGQSLIKIDHHPATDQYGDVNFVNTEASSTSEIIFDFISHFNDLSIIDEHVARVLYLGIVGDTGRFLFSNTSPHTMEVASQLLAYPFNHNAELNKMSEKDPKLMPFQGYVLQNFELSDSHEYCQIKITNDVLKQFDIQPNEASQFVNTVADISGLKIWMFGVDEGDQIRCRIRSKGITINDVANQFGGGGHPNASGVSVYSWDEFEELAQALRQKLLEHHHHHH | soluble
9 | MGFKRLLASLGAGGASVETVLTEVNVVPGGVVQGEVRIQGGSVNQAIEGLSVGLQAKVEVEGHDDQEYKQDIEFAKLSLGGAFELQAGAVHAVPFGLEIPWETPITMIDGQALRGMNIGVTTELEIARAVDSGDLDPVNVHPLPAQKAILDAFVQLGFRFKNADMERGHIRGTRQRLPFYQEIEFFPPSQYRGLNQVELSFVADDREMDVILEMDKKPGLFSEGSDSYRSFQVGLNDFQGTDWTAYLHQWLSEVGSKRSWF | not soluble
10 | MSQLCPCGSAVEYSLCCHPYVSGEKVAPDPEHLMRSRYCAFVMQDADYLIKTWHPSCGAAALRAELMAGFAHTEWLGLTVFEHCWQDADNIGFVSFVARFTEGGKTGAIIERSRFLKENGQWYYIDGTRPQFGRNDPCPCGSGKKFKKCCGQ | not soluble
11 | MPNYLENVKDAAAIIASARRIMVVGCSGGGKSTLSQKLAAAFGLRYISMDRDIFWLPGWQLRPREEQRQRIAAVVTEDRWLMDGSNPSSFDLRLPRTDIVLWVRMPRWLCLWGAVSRIVKGYGKARPEMAAGCPERIDLDFLRYIWNFERRHTPVFEESFALHGPNVPIFQLKSRKQIRRLLDLLVVEDLEHHHHHH | soluble
12 | MAHHHHHHMSLPIMSVVRMAVQELPLLSFAPTSLVSDGCVFLPTLSDCSAFAGCSITSATLQCDGTLLIKVVPAILRLIPLKGISSSHGYSSLAAGGSHSEAVALLKGLPTVRLQAVSPVFPLFTPGGCVEYFSATSQQTTAAVPVLTNTIREHLRRLRAYVPQHLDELVPSAPSKVSSWFVVSYPGADAVPEPCLFVLPDVLVVRTVMSQVGSRKIPPHHKRSVAVMGQSGVAKLLEELKWSGCAVRVVDDANHVCVLPPTLTAASQMKQVTH | soluble
13 | MLQHYSVSWKKGLAALCLLAVAGLSGCDQQENAAAKVEYDGLSNSQPLRVDANNHTVTMLVQINGRFLTDDTRHGIVFKDGSNGHKSLFMGYATPKAFYEALKEAGGTPGENMTMDNKETTHVTGSKLDISVNWQGAAKAYSFDEVIVDSNGKKLDMRFGGNLTAAEEKKTGCLVCLDSCPVGIVSNATYTYGAVEKRGEVKFKGNASVLPADNTLATVTFKIAE | soluble
14 | MLPERVLEILREMKRERIKGASWLAKKGAEAFLTLAEELDESLLEDAIMELREEVVKVNPSMASLYNLARFIPVTNRRDILKSRALEFLRRMEEAKRELASIGAQLIDDGDVIITHSFSSTVLEIIRTAKERKKRFKVILTESSPDYEGLHLARELEFSGIEFEVITDAQMGLFCREASIAIVGADMITKDGYVVNKAGTYLLALACHENAIPFYVAAETYKFHPTLKSGDVMLMERDLIRGNVRIRNVLFDVTPWKYVRGIITELGIVIPPRDIQ | soluble
15 | MKRIPYALVDVFAPAPGAGNRVAVVLDARGMSPEEMQAVAQSLGAAEAAFLLERTGAALSVRFFAPGGEVEFSGHAAVAVGLTAARTGLVPEGTTRLYLHTPTEVLPVELVLEAGEPRKAWVRGPAPRFRDLPPYRALREVLEALGSDERYLHRGLPYGVAFTGLWSLFVPLIAPGVVDALEPEMERLKALCFRLDVATVHAYAPMGPRSFYARDFAPLLGIPEDPVTGSANAALGALLARAGVVPRREGKVLLTVYQGHHLGNPGVVEVQVEYSPTGEPYSVQIGGEAVIVQTGEV | soluble
